Results: patent US20190382483A1 (published 2019)

T1: Recombinant hSIRPg-His (Sino Biologicals, reference 11828-H08H) (human, UniProt Q9P1W8 29-360)
T1 chain: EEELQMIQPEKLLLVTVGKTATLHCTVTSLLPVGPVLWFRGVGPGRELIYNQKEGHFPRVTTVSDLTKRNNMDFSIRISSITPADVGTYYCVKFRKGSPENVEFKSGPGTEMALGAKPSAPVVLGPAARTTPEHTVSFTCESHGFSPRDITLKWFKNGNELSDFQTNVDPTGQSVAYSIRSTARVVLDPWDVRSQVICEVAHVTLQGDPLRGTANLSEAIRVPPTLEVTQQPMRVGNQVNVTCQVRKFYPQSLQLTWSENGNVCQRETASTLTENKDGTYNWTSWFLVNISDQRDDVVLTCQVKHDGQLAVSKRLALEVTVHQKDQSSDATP


Target: T1, Recombinant hSIRPg-His (Sino …)
Assay: Blitz (BLI)

Row | Kd | Binder
1 | 5.3 nM | SIRP29 (antibody, V domains shown) VH: EVQLQQSGAELVKPGASVKLSCTASGFNIKDYYIHWVQQRTEQGLEWIGRIDPEDGETKYAPKFQDKATITADTSSNTAYLHLSSLTSEDTAVYYCARWGAYWGQGTLVTVSS VL: QIVLTQSPAIMSASPGEKVTLTCSASSSVSSSYLYWYQQKPGSSPKLWIYSTSNLASGVPARFSGSGSGTSYSLTISSMEAEDAASYFCHQWSSYPRTFGAGTKLELK
2 | 2.14 nM | Kwar23 (antibody, V domains shown) VH: EVQLQQSGAELVKPGASVKLSCTASGFNIKDYYIHWVQQRTEQGLEWIGRIDPEDGETKYAPKFQDKATITADTSSNTAYLHLSSLTSEDTAVYYCARWGAYWGQGTLVTVSS VL: QIVLTQSPAIMSASPGEKVTLTCSASSSVSSSYLYWYQQKPGSSPKLWIYSTSNLASGVPARFSGSGSGTSYSLTISSMEAEDAASYFCHQWSSYPRTFGAGTKLELK
